Test results: patent US20100150950A1, “HUMAN ANTIBODIES THAT BIND CD70 AND USES THEREOF” (Medarex, Inc., priority 2006, published 2010)

What was measured:
HuT 78 cells = test: ADCC fluorescence cytotoxicity assay, HuT 78; format: cell-based, human; conditions: target to effector ratio 1:50
Experimental: In this example, anti-CD70 monoclonal antibodies were tested for the ability to kill CD70+ cell lines in the presence of effector cells via antibody dependent cellular cytotoxicity (ADCC) in a fluorescence cytotoxicity assay.
Human effector cells were prepared from whole blood as follows. Human peripheral blood mononuclear cells were purified from heparinized whole blood by standard Ficoll-paque separation. The cells were resuspended in RPMI1640 media containing 10% FBS and 200 U/ml of human IL-2 and incubated overnight at 37° C. The following day, the cells were collected and washed four times in culture media and resuspended at 2×10^7 cells/ml. […]
The CD70+ cell lines ARH-77 (human B lymphoblast leukemia; ATCC Accession No. CRL-1621), HuT 78 (human cutaneous lymphocyte lymphoma; ATCC Accession No. TIB-161), Raji (human B lymphocyte Burkitt's lymphoma; ATCC Accession No. CCL-86) and a negative control cell line L540 (human Hodgkin's lymphoma; DSMZ Deposit No. ACC 72) were tested for antibody specific ADCC to the human anti-CD70 monoclonal antibodies using the Delfia fluorescence emission analysis as follows. […]
In this example, a defucosylated and non-defucosylated anti-CD70 monoclonal antibody was tested for the ability to kill CD70+cells in the presence of effector cells via antibody dependent cellular cytotoxicity (ADCC) in a fluorescence cytotoxicity assay […]

activated T cells = test: ADCC fluorescence cytotoxicity assay, activated T cells; format: cell-based, human
Experimental: In this example, a defucosylated and non-defucosylated anti-CD70 monoclonal antibody was tested for the ability to kill activated T cells in the presence of effector cells via antibody dependent cellular cytotoxicity (ADCC) in a fluorescence cytotoxicity assay.
Human Anti-CD70 monoclonal antibody 2H5 was defucosylated as described above. Human effector cells were prepared as described above. Human spleen T cells were positively selected with anti-CD3 coated magnetic beads (Purity>90%). The cells were stimulated with anti-CD3 and anti-CD28 coated beads and 25 ng/ml IL-2 in Iscove's media+10% heat inactivated FCS for 6 days. Cells were collected and assayed for viability by propidium iodide incorporation (60% viable) and live cells were gated and analyzed for CD70 expression (˜65% CD70+ on live cells) prior to inclusion in ADCC assays.
The activated T cells were tested for antibody specific ADCC to the defucosylated and non-defucosylated human anti-CD70 monoclonal antibody 2H5 using the Delfia fluorescence emission analysis as follows. […] Following a 2100 rpm pulse spin and one hour incubation at 37° C., the supernatants were collected, quick spun again and 20 μl of supernatant was transferred to a flat bottom plate, to which 180 μl of Eu solution (Perkin Elmer, Wellesley, Mass.) was added and read in a Fusion Alpha TRF plate reader (Perkin Elmer). […]

B1: 2H5 NF: 2H5 HuMAb lacking fucosyl residues, expressed in CHO cell line Ms704-PF (antibody, V domains shown)
VH: QVQLVESGGGVVQPGRSLRLSCAASGFTFSSYIMHWVRQAPGKGLEWVAVISYDGRNKYYADSVKGRFTISRDNSKNTLYLQMNSLRAEDTAVYYCARDTDGYDFDYWGQGTLVTVSS
VL: EIVLTQSPATLSLSPGERATLSCRASQSVSSYLAWYQQKPGQAPRLLIYDASNRATGIPARFSGSGSGTDFTLTISSLEPEDFAVYYCQQRTNWPLTFGGGTKVEIK
HuT 78 cells
  ADCC, % lysis of HuT 78: increased percentage of specific lysis
Activated T cells; activated T cells
  antibody mediated cytotoxicity with addition of anti-CD16 antibody: blocked
Activated T cells; target to effector ratio 1:50
  ADCC, % specific lysis of activated T cells: increased percentage of specific lysis
